# Experimental data published in the Immune Epitope Database (IEDB).
# Target: HLA-A*02:01
# Assay: IEDB peptide-MHC binding, purified MHC/competitive/radioactivity; ≥ and ≤ were set here for values at or beyond the usual limits of such assays
# Conditions: source organism: Trypanosoma cruzi
row,Sequence,IC50 [nM]
1,AANPHATFGV,2950
2,AASTLLYATV,2980
3,ALSLAAVLV,112
4,ALSLAAVLVV,324
5,AMALIGDSTV,148
6,AVLVVMACL,4150
7,CLVPAATASL,2540
8,FLAGHPLTNL,14
9,FLARLHAAA,48
10,FLGGGGAGI,3580
11,FTLVAPVSI,363
12,FTSAVLLLV,10
13,FTSAVLLLVV,918
14,GLLLLGLWGT,62
15,GLMNNAFEWI,175
16,IILNGSLLT,4330
17,KTWADEYLCV,444
18,KVVSLVILA,409
19,LLLGLWGTA,944
20,LLLGLWGTAA,241
21,LLLLGLWGTA,888
22,LLTTSGVSAI,1110
23,LMNNAFEWI,395

row,Sequence,IC50 [nM]
1,LMNNAFEWIV,56
2,LTNLSEQMLV,3190
3,MMSCSSEAT,1170
4,MTSCVSEQL,348
5,QLDHGVLLV,673
6,QMDYSNGLFV,61
7,RALSLAAVL,3880
8,RLHLWLSDM,4910
9,RLLSPTTIV,290
10,RVFGLLLLGL,355
11,RVFTSAVLL,661
12,SIHVTVSNV,3610
13,SLVYVNGVVV,2880
14,SMNATLVQA,267
15,SVFRENLFL,59
16,TLLYATVEV,68
17,VMACLVPAA,10
18,VMMSCSSEA,55
19,VVMACLVPAA,98
20,WIIKNSWTA,186
21,WLSDCGEAL,228
22,YVNGVVVATV,466

# Target: HLA-A*02:01
# Assay: IEDB peptide-MHC binding, purified MHC/competitive/radioactivity; filed as Kd, often an IC50 or EC50 that approximates it; ≥ and ≤ were set here for values at or beyond the usual limits of such assays
# Conditions: source organism: Trypanosoma cruzi
row,Sequence,Kd [nM]
1,AACIVGCENV,≥ 28200
2,AIVFDHYDV,≥ 43400
3,AIVTCGAETL,≥ 28200
4,ALKNNGKVV,≥ 43400
5,CLLTTSGVSA,10400
6,FANSKFTLVA,≥ 43400
7,FTDNKSCVSL,14400
8,GLTFKGPGA,≥ 43400
9,GVQGGFVSA,≥ 43400
10,IVQENNGAV,≥ 28200
11,KALETDVPA,≥ 43400
12,LAAVLVVMA,≥ 22800
13,LLGLWGTAA,6260
14,LLTTSGVSA,≥ 28200
15,LLVGYNDSA,≥ 28200
16,LLVGYNDSAA,≥ 28200
17,LTFKGPGAWA,≥ 43400
18,LVQAFHSFRA,6920
19,LVYVNGVVV,9070
20,MACLVPAAT,≥ 26800

row,Sequence,Kd [nM]
1,MALIGDSTV,17500
2,MTEQTDEAV,≥ 43400
3,MTYTGGVMT,≥ 28200
4,NVLLYNRLL,6030
5,QMSCTDAACI,≥ 28200
6,QVHSSLSVV,≥ 43400
7,RIILNGSLL,≥ 43400
8,SLSVVRPMT,8560
9,STHCSGPSV,≥ 28200
10,STSRVPYDI,≥ 43400
11,SVPLNQCNWL,≥ 28200
12,VAVNGPVAV,≥ 28200
13,VLLLVVVMM,≥ 27900
14,VLVVMACLV,7350
15,VTLPTGQCL,≥ 28200
16,WADEYLCVNA,≥ 43400
17,WAFSAIGNV,16700
18,WIVQENNGA,12800
19,WMTYTGGVMT,≥ 28200
20,YATVEVPSL,5500
